Measured values published in patent US20120184713.

Assays:
[1] = system: T1, Peptide1, OPN-ASARM peptide (human Osteopontin 115Asp to 132Leu with N-terminal Arg-Lys-Arg)
T1 sequence: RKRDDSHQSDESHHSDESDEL

[2] = system: T2, Peptide3, OPN-ASARM derivative with the three G-CK consensus Ser residues changed to Ala
T2 sequence: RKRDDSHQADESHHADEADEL

[3] = system: T3, Peptide4, OPN-ASARM derivative with the other two Ser residues changed to Ala
T3 sequence: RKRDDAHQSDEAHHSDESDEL

Casein Kinase I (NEB)
in vitro kinase assay with peptide substrate [1]: CKI also phosphorylated OPN-ASARM
in vitro kinase assay with peptide substrate [2]: had reduced, but similar levels of activity on both OPN-ASARM^3S-A and OPN-ASARM^2S-A
in vitro kinase assay with peptide substrate [3]: had reduced, but similar levels of activity on both OPN-ASARM^3S-A and OPN-ASARM^2S-A
